# Target: Biotin-labeled fluorescent peptide …(S*)PDK-(5-FAM)
# Experiment: cell-based or functional assay
row,Substance,"EC50 of enzyme titration (TR-FRET ratio, 400 nM substrate, 200 µM ATP) [µg/mL]"
1,"GSK3α, rHuman (from UniProt P49840 1-483) (enzyme)",0.025
2,"GSK3β, rHuman (from UniProt P49841 1-420) (enzyme)",0.245

# Source: patent US20050170442A1
